Test results taken from patent US20240118272A1.

Columns and labels:
[1] = biological target: CD9(FL)-ALP conjugate (human; bovine); assay: HI-1000 capture immunoassay; calibrator C4, 15 ng/mL; run 1
[2] = biological target: CD9(FL)-ALP conjugate (human; bovine); assay: HI-1000 capture immunoassay; calibrator C4, 15 ng/mL; run 2
[3] = biological target: CD9(FL)-ALP conjugate (human; bovine); assay: HI-1000 capture immunoassay; calibrator C5, 30 ng/mL; run 1
[4] = biological target: CD9(FL)-ALP conjugate (human; bovine); assay: HI-1000 capture immunoassay; calibrator C5, 30 ng/mL; run 2
[5] = biological target: CD9(FL)-ALP conjugate (human; bovine); assay: HI-1000 capture immunoassay; calibrator C1, 1.0 ng/mL; run 3
[6] = biological target: CD9(FL)-ALP conjugate (human; bovine); assay: HI-1000 capture immunoassay; calibrator C2, 3.7 ng/mL; run 1
[7] = biological target: CD9(FL)-ALP conjugate (human; bovine); assay: HI-1000 capture immunoassay; calibrator C2, 3.7 ng/mL; run 2
[8] = biological target: CD9(FL)-ALP conjugate (human; bovine); assay: HI-1000 capture immunoassay; calibrator C2, 3.7 ng/mL; run 3
[9] = biological target: CD9(FL)-ALP conjugate (human; bovine); assay: HI-1000 capture immunoassay; calibrator C3, 7.4 ng/mL; run 1
[10] = biological target: CD9(FL)-ALP conjugate (human; bovine); assay: HI-1000 capture immunoassay; calibrator C3, 7.4 ng/mL; run 3
[11] = biological target: CD9(FL)-ALP conjugate (human; bovine); assay: HI-1000 capture immunoassay; calibrator C1, 1.83 mU/L; run 2
[12] = biological target: CD9(FL)-ALP conjugate (human; bovine); assay: HI-1000 capture immunoassay; calibrator C2, 5.48 mU/L; run 1
[13] = biological target: CD9(FL)-ALP conjugate (human; bovine); assay: HI-1000 capture immunoassay; calibrator C2, 5.48 mU/L; run 2
[14] = biological target: CD9(FL)-ALP conjugate (human; bovine); assay: HI-1000 capture immunoassay; calibrator C3, 10.96 mU/L; run 3
[15] = biological target: CD9(FL)-ALP conjugate (human; bovine); assay: HI-1000 capture immunoassay; calibrator C4, 21.93 mU/L; run 1
[16] = biological target: CD9(FL)-ALP conjugate (human; bovine); assay: HI-1000 capture immunoassay; calibrator C4, 21.93 mU/L; run 2
[17] = biological target: CD9(FL)-ALP conjugate (human; bovine); assay: HI-1000 capture immunoassay; calibrator C4, 15 ng/mL; mean of 3
[18] = biological target: CD9(FL)-ALP conjugate (human; bovine); assay: HI-1000 capture immunoassay; calibrator C3, 7.4 ng/mL; mean of 3
[19] = biological target: CD9(FL)-ALP conjugate (human; bovine); assay: HI-1000 capture immunoassay; calibrator C4, 21.93 mU/L; mean of 3
[20] = biological target: CD9(ECD)-ALP conjugate (human; bovine); assay: HI-1000 capture immunoassay; primary calibrator C1, 1.52 ng/mL; run 1
Chain of CD9(ECD)-ALP conjugate (human; bovine) (chain, as listed by the source, chain 1 of 2): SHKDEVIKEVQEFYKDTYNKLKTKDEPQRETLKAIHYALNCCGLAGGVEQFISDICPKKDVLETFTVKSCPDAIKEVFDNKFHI
Chain of CD9(ECD)-ALP conjugate (human; bovine) (P19111 20-506, chain 2 of 2): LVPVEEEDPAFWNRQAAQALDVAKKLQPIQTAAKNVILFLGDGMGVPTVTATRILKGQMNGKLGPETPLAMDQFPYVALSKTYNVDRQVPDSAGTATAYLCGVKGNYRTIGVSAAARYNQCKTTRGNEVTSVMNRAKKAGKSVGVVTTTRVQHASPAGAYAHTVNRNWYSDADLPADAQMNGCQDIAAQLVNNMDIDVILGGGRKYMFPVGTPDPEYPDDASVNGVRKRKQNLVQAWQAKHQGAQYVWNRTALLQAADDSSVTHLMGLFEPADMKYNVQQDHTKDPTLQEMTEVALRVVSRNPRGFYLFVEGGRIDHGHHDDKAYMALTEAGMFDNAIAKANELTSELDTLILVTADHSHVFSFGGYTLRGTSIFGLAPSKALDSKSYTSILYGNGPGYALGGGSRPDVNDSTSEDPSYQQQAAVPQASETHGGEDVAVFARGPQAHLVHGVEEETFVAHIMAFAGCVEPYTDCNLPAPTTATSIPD

[21] = biological target: CD9(ECD)-ALP conjugate (human; bovine); assay: HI-1000 capture immunoassay; secondary calibrator C1, 1.02 U/L; run 1
[22] = biological target: CD9(ECD)-ALP conjugate (human; bovine); assay: HI-1000 capture immunoassay; secondary calibrator C2, 3.84 U/L; run 1
[23] = biological target: CD9(ECD)-ALP conjugate (human; bovine); assay: HI-1000 capture immunoassay; secondary calibrator C2, 3.84 U/L; run 2
[24] = biological target: CD9(ECD)-ALP conjugate (human; bovine); assay: HI-1000 capture immunoassay; secondary calibrator C2, 3.84 U/L; run 3
[25] = biological target: CD9(ECD)-ALP conjugate (human; bovine); assay: HI-1000 capture immunoassay; primary calibrator C3, 15.65 ng/mL; run 1
[26] = biological target: CD9(ECD)-ALP conjugate (human; bovine); assay: HI-1000 capture immunoassay; primary calibrator C4, 50.05 ng/mL; run 1
[27] = biological target: CD9(ECD)-ALP conjugate (human; bovine); assay: HI-1000 capture immunoassay; primary calibrator C4, 50.05 ng/mL; run 3
[28] = biological target: CD9(ECD)-ALP conjugate (human; bovine); assay: HI-1000 capture immunoassay; primary calibrator C5, 159.87 ng/mL; run 2
[29] = biological target: CD9(ECD)-ALP conjugate (human; bovine); assay: HI-1000 capture immunoassay; secondary calibrator C5, 387.01 U/L; run 2
[30] = biological target: CD9(ECD)-ALP conjugate (human; bovine); assay: HI-1000 capture immunoassay; secondary calibrator C1; mean of 3 aliquots
[31] = biological target: CD9(ECD)-ALP conjugate (human; bovine); assay: HI-1000 capture immunoassay; secondary calibrator C4; mean of 3 aliquots
[32] = biological target: CD9(ECD)-ALP conjugate (human; bovine); assay: HI-1000 capture immunoassay; thawed aliquot 1 of secondary calibrator C1
[33] = biological target: CD9(ECD)-ALP conjugate (human; bovine); assay: HI-1000 capture immunoassay; thawed aliquot 1 of secondary calibrator C2
[34] = biological target: CD9(ECD)-ALP conjugate (human; bovine); assay: HI-1000 capture immunoassay; thawed aliquot 2 of secondary calibrator C2
[35] = biological target: CD9(ECD)-ALP conjugate (human; bovine); assay: HI-1000 capture immunoassay; thawed aliquot 2 of secondary calibrator C3
[36] = biological target: CD9(ECD)-ALP conjugate (human; bovine); assay: HI-1000 capture immunoassay; thawed aliquot 2 of secondary calibrator C5
[37] = biological target: CD9(ECD)-ALP conjugate (human; bovine); assay: HI-1000 capture immunoassay; primary calibrator C1, 1.52 ng/mL; mean of 3
[38] = biological target: CD9(ECD)-ALP conjugate (human; bovine); assay: HI-1000 capture immunoassay; secondary calibrator C3, 14.32 U/L; mean of 3
[39] = biological target: CD9(ECD)-ALP conjugate (human; bovine); assay: HI-1000 capture immunoassay; primary calibrator C5, 159.87 ng/mL; mean of 3
[40] = biological target: CD9(ECD)-ALP conjugate (human; bovine); assay: HI-1000 capture immunoassay; secondary calibrator C5, 387.01 U/L; mean of 3

Chain of CD9(FL)-ALP conjugate (human; bovine) (chain, as listed by the source, chain 1 of 2): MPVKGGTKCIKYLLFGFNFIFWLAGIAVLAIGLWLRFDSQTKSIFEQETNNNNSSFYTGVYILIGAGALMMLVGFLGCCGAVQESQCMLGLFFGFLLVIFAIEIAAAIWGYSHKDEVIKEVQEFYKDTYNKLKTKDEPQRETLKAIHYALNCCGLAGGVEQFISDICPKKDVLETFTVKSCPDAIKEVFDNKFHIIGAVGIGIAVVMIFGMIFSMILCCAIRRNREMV
Chain of CD9(FL)-ALP conjugate (human; bovine) (P19111 20-506, chain 2 of 2): as the sequence (P19111 20-506, chain 2 of 2) above

Q: With anti-CD9 antibody (Clone: H19a) as the substance, how does the Count value [1] read?
A: 13000 count

Q: And the Count value [2]?
A: 13800 count

Q: What about the Count value [3] of the same substance?
A: 24600 count

Q: What about the Count value [4] of the same substance?
A: 26900 count

Q: And the Count value [5]?
A: 1470 count

Q: And the Count value [6]?
A: 5360 count

Q: And the Count value [7]?
A: 8680 count

Q: And the Count value [8]?
A: 3800 count

Q: And the Count value [9]?
A: 7040 count

Q: And the Count value [10]?
A: 7010 count

Q: And the Count value [11]?
A: 1580 count

Q: What about the Count value [12] of the same substance?
A: 3630 count

Q: What about the Count value [13] of the same substance?
A: 3520 count

Q: What about the Count value [14] of the same substance?
A: 6810 count

Q: What about the Count value [15] of the same substance?
A: 13400 count

Q: And the Count value [16]?
A: 13200 count

Q: What about the Count value (av) [17] of the same substance?
A: 13500 count

Q: What about the Count value (av) [18] of the same substance?
A: 7020 count

Q: What about the Count value (av) [19] of the same substance?
A: 13300 count

Q: And the Count value [20]?
A: 1080 count

Q: And the Count value [21]?
A: 975 count

Q: What about the Count value [22] of the same substance?
A: 2420 count

Q: What about the Count value [23] of the same substance?
A: 2300 count

Q: What about the Count value [24] of the same substance?
A: 2450 count

Q: What about the Count value [25] of the same substance?
A: 7340 count

Q: What about the Count value [26] of the same substance?
A: 22400 count

Q: And the Count value [27]?
A: 22600 count

Q: What about the Count value [28] of the same substance?
A: 67600 count

Q: And the Count value [29]?
A: 218000 count

Q: What about the Count value (av) [30] of the same substance?
A: 811 count

Q: And the Count value (av) [31]?
A: 11600 count

Q: What about the Count value [32] of the same substance?
A: 818 count

Q: And the Count value [33]?
A: 1560 count

Q: What about the Count value [34] of the same substance?
A: 1580 count

Q: And the Count value [35]?
A: 4080 count

Q: What about the Count value [36] of the same substance?
A: 36800 count

Q: What about the Count value (av) [37] of the same substance?
A: 1100 count

Q: And the Count value (av) [38]?
A: 8090 count

Q: What about the Count value (av) [39] of the same substance?
A: 69800 count

Q: And the Count value (av) [40]?
A: 216000 count
